Test results taken from patent US20260234242A1 (HAINAN SIMCERE ZAIMING PHARMACEUTICAL, published 2026).

T1: human CDH6 with EC3 removed, on HEK293T cells (HEK293T-hCDH6-EC3 deletion) (human, UniProt P55285 54-790)
T1 construct: Signal peptide not removed here
T1 sequence: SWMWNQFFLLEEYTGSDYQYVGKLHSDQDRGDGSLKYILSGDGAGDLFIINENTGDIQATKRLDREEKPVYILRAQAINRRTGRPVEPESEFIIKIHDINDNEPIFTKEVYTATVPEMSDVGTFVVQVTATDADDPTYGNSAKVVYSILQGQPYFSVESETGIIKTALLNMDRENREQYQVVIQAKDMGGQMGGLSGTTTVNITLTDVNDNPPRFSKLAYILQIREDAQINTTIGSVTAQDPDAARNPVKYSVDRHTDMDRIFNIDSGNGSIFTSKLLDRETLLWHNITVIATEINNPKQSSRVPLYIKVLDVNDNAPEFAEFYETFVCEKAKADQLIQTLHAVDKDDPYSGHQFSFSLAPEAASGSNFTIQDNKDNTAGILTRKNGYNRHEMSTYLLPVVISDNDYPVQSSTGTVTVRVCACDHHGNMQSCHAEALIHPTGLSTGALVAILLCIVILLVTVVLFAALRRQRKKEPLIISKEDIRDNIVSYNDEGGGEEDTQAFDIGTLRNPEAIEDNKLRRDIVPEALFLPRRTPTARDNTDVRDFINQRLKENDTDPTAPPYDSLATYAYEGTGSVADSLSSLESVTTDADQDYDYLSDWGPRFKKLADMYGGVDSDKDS

T2: human CDH6 with EC1 removed, on HEK293T cells (HEK293T-hCDH6-EC1 deletion) (human, UniProt P55285 160-790)
T2 construct: Signal peptide not removed here
T2 sequence: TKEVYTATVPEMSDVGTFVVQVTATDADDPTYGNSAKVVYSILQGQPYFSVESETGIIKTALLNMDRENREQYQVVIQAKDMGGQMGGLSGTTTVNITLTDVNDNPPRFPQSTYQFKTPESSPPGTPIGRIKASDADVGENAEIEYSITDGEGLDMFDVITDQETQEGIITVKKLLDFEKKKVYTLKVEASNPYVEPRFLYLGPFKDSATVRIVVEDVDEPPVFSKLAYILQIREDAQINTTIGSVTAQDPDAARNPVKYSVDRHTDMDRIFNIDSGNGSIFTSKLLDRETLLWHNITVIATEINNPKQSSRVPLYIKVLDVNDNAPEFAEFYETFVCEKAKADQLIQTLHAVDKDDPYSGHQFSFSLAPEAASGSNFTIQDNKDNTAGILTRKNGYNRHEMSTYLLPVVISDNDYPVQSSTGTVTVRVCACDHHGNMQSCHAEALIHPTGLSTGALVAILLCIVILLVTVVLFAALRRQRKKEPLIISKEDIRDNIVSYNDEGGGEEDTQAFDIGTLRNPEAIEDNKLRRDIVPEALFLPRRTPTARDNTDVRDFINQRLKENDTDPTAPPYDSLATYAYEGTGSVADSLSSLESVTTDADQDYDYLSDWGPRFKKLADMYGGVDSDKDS

T3: human CDH6 on tumor cells (OVCAR3 cells, PA-1 cells) (human, UniProt P55285 54-790)
T3 sequence: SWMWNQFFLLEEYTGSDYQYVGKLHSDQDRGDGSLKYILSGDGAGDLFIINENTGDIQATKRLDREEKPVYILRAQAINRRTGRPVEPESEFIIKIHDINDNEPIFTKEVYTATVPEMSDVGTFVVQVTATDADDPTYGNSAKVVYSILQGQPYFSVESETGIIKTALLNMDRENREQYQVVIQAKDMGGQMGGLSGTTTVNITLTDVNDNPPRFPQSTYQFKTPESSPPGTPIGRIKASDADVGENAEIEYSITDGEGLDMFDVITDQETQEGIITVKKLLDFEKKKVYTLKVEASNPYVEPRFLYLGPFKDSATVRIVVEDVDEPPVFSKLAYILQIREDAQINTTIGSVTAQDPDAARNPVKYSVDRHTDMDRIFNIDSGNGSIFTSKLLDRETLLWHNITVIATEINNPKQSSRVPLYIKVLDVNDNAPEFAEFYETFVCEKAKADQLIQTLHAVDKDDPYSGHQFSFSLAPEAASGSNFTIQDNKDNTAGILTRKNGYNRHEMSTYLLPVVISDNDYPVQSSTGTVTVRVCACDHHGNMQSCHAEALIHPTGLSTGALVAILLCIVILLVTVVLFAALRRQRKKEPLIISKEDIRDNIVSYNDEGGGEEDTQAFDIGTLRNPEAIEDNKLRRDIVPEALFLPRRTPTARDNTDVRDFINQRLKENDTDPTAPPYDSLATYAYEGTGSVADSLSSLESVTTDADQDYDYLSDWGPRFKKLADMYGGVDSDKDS

B1: CHI-CDH6-4 (antibody, human IgG1, kappa, V domains shown)
VH: QVQLQQSGPELVKPGASVKISCKASGYAFSNFWMNWVKQRPGKGLEWIGWIYPGDGDTNYNGKFKDKATLTADKSSSTAYIQLSSLTSEDSAVYFCARLYDAWGFFDYWGQGTTLTVSS
VL: QIVLTQSPAIMSASPGQKVTITCSASSSVNYMHWYQQKLGSSPKLWIYDKSKLAPGVPARFSGSGSGTSYSLTISSMEAEDAASYFCHQWSSYPPMTFGGGTKLEIKR
notes: also called CH1-CDH6-4; chimeric antibody of murine CDH6-4
B2: CHI-CDH6-7 (antibody, human IgG1, kappa, V domains shown)
VH: EVKLVESGGGLVKPGGSLKVSCAASGFTFSDHGMAWVRQAPGKGPEWVAFISNLAYSIYYADTVTGRFTISRENAKNTLYLEMSSLRSEDTAMYYCARVYVKWYFDVWGAGTTVTVSS
VL: DIQMTQSPASLSASVGETVTITCRASENIDSYLAWYQQKQGKSPQLLVFAATLLADGVPSRFSGSGSGTQYSLKINSLQSEDVARYYCQHYYSTPLTFGAGTKLELKR
notes: also called CH1-CDH6-7; chimeric antibody of murine CDH6-7
B3: CHI-CDH6-3 (antibody, human IgG1, kappa, V domains shown)
VH: QVQLQQPGAELVKPGASVKLSCKASGYTFTSYWIHWVKQRPGQGLEWIGEINPSNGVTNCNENFKSKATLTVDKSSSTAYMQLSSLTSEDSAVYYCTIPNLLWWYFDVWGAGTTVTVSS
VL: DIQMTQSPASLSVSVGETVTITCRASENIYSNLAWYQQKQGKSPQLLVYEATNLADGVPSRFSGSGSGTQYSLKINSLQSEDFGSYYCQHFWGTLWTFGGGTKLEIKR
notes: also called CH1-CDH6-3; chimeric antibody of murine CDH6-3
B4: hCDH6-6-H2L2 (antibody, V domains shown)
VH: EVQLVQSGAEVKKPGASVKVSCKASGYTFTDYYMAWVRQAPGQGLEWMGYIFPNSGGTDYSQKFKGRVTLTVDKSTSTVYMELSSLRSEDTAVYYCARELGADYGDYYAMDHWGQGTTVTVSS
VL: DIQMTQSPSSLSASVGDRVTITCRASENIDSYLAWYQQKPGKSPKLLVYSATLLADGVPSRFSGSGSGTDYTLTISSLQPEDFATYYCQHYYRTPPTFGQGTKLEIK
notes: Humanized
B5: CHI-CDH6-12 (antibody, human IgG1, kappa, V domains shown)
VH: EVNLVESGGGLVQPGDSLTLSCSASGFTFTDYYMSWVRQFPGKALEWLALIRNKANSYTTEYSASVKGRFTISRDNSQSILYLQMNALRAEDSATYYCARDSYYSHDGFAYWGQGTLVTVSA
VL: DIVLTQSPASLAVSLGQRATISCRASKSVSTSSYTYMHWYQQKPGQPPKLLIKFASYLESGVPARFSGSGSGTDFTLNIHPVEEEDAATYYCQHSREFPFTFGTGTKLEIKR
notes: also called CH1-CDH6-12; chimeric antibody of murine CDH6-12
B6: CHI-CDH6-1 (antibody, human IgG1, kappa, V domains shown)
VH: QVQLQQPGAELVRPGSSVKLSCKASGYTFTNYWMHWVKQRPIEGLEWIGDIDPSHSETHYTQKFKDKATLTVDKSSSTAYMQLSSLTSEDSAVYYCARGDLGRFDYWGQGTTLTVSS
VL: DIVLTQSPASLAVSLGQRATISCRASESVSIHGTHLMHWYQQKSGQPPKLLIYAASNLESGVPARFSGSGSETDFTFNIHPVEEEDAATYFCQQSFEDPWTFGGGTKLEIKR
notes: also called CHI-hCDH6-1; CH1-CDH6-1
B7: CHI-CDH6-14 (antibody, human IgG1, kappa, V domains shown)
VH: QIQLQQSGPELVKPGTSVKISCKASGYTFTDNYINWVRQRPGQGLEWIGWIYPGTGNSYYNEKFKGKATLTVDTSSSTAYMQFSSLTSEDSAVYLCASSYGDSFDYWGQGTTLTVSS
VL: DIQMTQTTSSLSASLGNRVTISCRASQDIRNYLNWYQQKPDGTFKLLISYTSRLHSGVPSRFSGSGSGTDYSLTVSNLEPEDIATYYCQQYSQLPWTFGGGSRLEIKR
notes: also called CHI-hCDH6-14; CH1-CDH6-14
B8: CHI-CDH6-5 (antibody, human IgG1, kappa, V domains shown)
VH: QVQLQQSGAELVRPGTSVKMSCKAAEYTFTNYWIGWVKQRPGHGLEWIGDLYPGGDHANYNEKFEGKATLTADTSSSTAYMQLSSLTSEDSAIYYCARGMLTTGFDSWGQGTTLTVSS
VL: DIVMSQSPSSLAVSAGEKVTMSCKSSQSLFNSRTRKNYLAWYQQKPGQSPKLLIYWASTRESGVPDRFTGSGSGTDFTLTISSVQAEDLAVYYCKQSYYLRTFGGGTKLEIKR
notes: also called CH1-CDH6-5; chimeric antibody of murine CDH6-5
B9: hCDH6-1-H2L3 (antibody, V domains shown)
VH: EVQLVQSGAEVKKPGSSVKVSCKASGYTFTNYWMHWVRQAPGQGLEWMGDIDPSHSETHYTQKFKDRVTITVDKSTSTAYMELSSLRSEDTAVYYCARGDLGRFDYWGQGTTVTVSS
VL: DIQMTQSPSSLSASVGDRVTITCRASESVSIHGTHLMHWYQQKPGKPPKLLIYAASNLESGVPSRFSGSGSETDFTFTISSLQPEDIATYYCQQSFEDPWTFGGGTKVEIK
notes: Humanized
B10: DS-H01L02 (antibody, human IgG1, kappa, V domains shown)
VH: EVQLVQSGAEVKKPGASVKVSCKASGYTFTRNFMHWVRQAPGQGLEWMGWIYPGDGETEYAQKFQGRVTITADTSTSTAYMELSSLRSEDTAVYYCARGVYGGFAGGYFDFWGQGTLVTVSS
VL: DIQMTQSPSSLSASVGDRVTITCKASQNIYKNLAWYQQKPGKAPKLLIYDANTLQTGVPSRFSGSGSGSDFTLTISSLQPEDFATYFCQQYYSGWAFGQGTKVEIKR
notes: Positive control, variable regions from WO2018212136A1; also called positive control anti-human CDH6 antibody
B11: NOV0712 (antibody, human IgG1, kappa, V domains shown)
VH: QVQLLESGGGLVQPGGSLRLSCAASGFTFSSHGMHWVRQAPGKGLEWVSVISGSGSNTGYADSVKGRFTISRDNSKNTLYLQMNSLRAEDTAVYYCARQWGSYAFDSWGQGTLVTVSS
VL: DIQMTQSPSSLSASVGDRVTITCRASQSISSYLNWYQQKPGKAPKLLIYAVSTLQSGVPSRFSGSGSGTDFTLTISSLQPEDFATYYCQQSGTFPPTTFGQGTKVEIKR
notes: as for B10

Key:
[1] = target: T1, human CDH6 with EC3 removed, on HEK293T …; assay: FACS, HEK293T-hCDH6-EC3 deletion cells
Text: To confirm the binding epitope of the CDH6 antibody, the sequences after removal of these 5 regions were constructed into pcDNA3.1 vectors (purchased from Youbio, Cat. No. VT1001), and transfected into HEK293T cells (purchased from Cell Bank of Chinese Academy of Sciences, Cat. No. SCSP-502) to obtain 5 CDH6 truncated cell lines: HEK293T-hCDH6-EC1 deletion, HEK293T-hCDH6-EC2 deletion, HEK293T-hCDH6-EC3 deletion, HEK293T-hCDH6-EC4 deletion, and HEK293T-hCDH6-EC5 deletion.
The binding activity of the CDH6 chimeric antibodies to these 5 cell lines was assayed by FACS.

[2] = target: T2, human CDH6 with EC1 removed, on HEK293T …; assay: FACS, HEK293T-hCDH6-EC1 deletion cells
[3] = target: T3, human CDH6 on tumor cells (OVCAR3 …); assay: FACS, OVCAR3 cells, 4° C. arm of endocytosis assay
Experimental: OVCAR3 cells were cultured until a confluence of 90% was reached, the medium was removed by pipetting, the cells were washed once with PBS, and then treated with an enzyme-free cell dissociation solution (Versene, purchased from Gibco, Cat. No. 15040-066) and the cells were collected. The cells were washed once with PBS, counted, resuspended to 2×10⁶ cells/mL in an FACS buffer (PBS+2% FBS), and then added to two 96-well plates at 50 μL/well. The chimeric antibodies were diluted with FACS buffer (PBS+2% FBS) to 10 μg/mL and separately added to the two 96-well plates at 50 μL/well, and the plates were incubated at 4° C. for 1 h. After the cells were washed 3 times with PBS, the cells were resuspended in an FACS buffer. One 96-well plate was incubated at 4° C. for 1 h, and the other 96-well plate was incubated at 37° C. for 1 h. […] After the plates were centrifuged and washed 2 times with PBS, the cells were resuspended in an FACS buffer. The mean fluorescence intensity (MFI) was measured using FACS Canton II (BD). The chimeric antibodies tested all had good endocytic activity.
Some of the antibodies were selected for the endocytic activity assay, and the method for assaying the endocytic activity of the humanized antibodies in OVCAR3 cells was the same as that in 2.4. The humanized antibodies tested all had good endocytic activity.

| Binder | Max MFI [1] [MFI] | binding result [2] | MFI_4° C. [3] [MFI] | binding result [1] |
| --- | --- | --- | --- | --- |
| B1 | 15100 |  |  |  |
| B2 | 9060 | no binding |  |  |
| B3 | 689 |  |  |  |
| B4 |  |  | 20500 |  |
| B5 | 70 |  |  |  |
| B6 | 18000 | no binding |  |  |
| B7 | 755 |  |  |  |
| B8 | 12200 | no binding |  |  |
| B9 |  |  | 20200 |  |
| B10 |  |  | 11400 | no binding (tested: MFI ~1.5 times that of hIgG1 (65)) |
| B11 | 16300 |  | 13600 |  |
